Measurements taken from the supplement of paper PMC5998384.

How the values were obtained:
HeLa Kyoto [1] = experiment: solubility in G1/S (NP-40 vs SDS abundance) (log2 ratio); higher = more soluble; settings: cell cycle stage: G1/S
HeLa Kyoto [2] = experiment: melting temperature (median over replicates), in situ; higher = more thermally stable
HeLa Kyoto [3] = experiment: solubility change mitosis vs G1/S (difference of NP-40 vs SDS log2 ratios) (log2 ratio difference); higher = more soluble in mitosis
HeLa Kyoto [4] = experiment: thermal stability score vs G1/S (z-score of summed log2 fold changes over temperatures); higher = more thermally stable than in G1/S
[5] = cell cycle stage: early G1 (4.5 h after nocodazole release)
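For melting temperature (median over replicates), in situ in this document: HeLa Kyoto cells synchronized by double thymidine or nocodazole block, proteins quantified by TMT10plex mass spectrometry, three independent biological replicates.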
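For solubility change mitosis vs G1/S (difference of NP-40 vs SDS log2 ratios) in this document: synchronized HeLa Kyoto cells (double thymidine block for G1/S, nocodazole release for mitosis), protein amounts in NP-40 versus SDS lysates quantified by mass spectrometry, three biological replicates.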
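For solubility in G1/S (NP-40 vs SDS abundance) in this document: HeLa Kyoto cells arrested at G1/S by double thymidine block, proteins quantified by TMT10plex mass spectrometry in mild NP-40 versus SDS extracts, three biological replicates.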
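For thermal stability score vs G1/S (z-score of summed log2 fold changes over temperatures) in this document: synchronized HeLa Kyoto cells, proteins quantified by TMT10plex mass spectrometry, three biological replicates, mitosis taken 0.5 h after nocodazole release, G1/S directly after double thymidine block.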

HNRNPAB, sequence (chain, as listed by the source): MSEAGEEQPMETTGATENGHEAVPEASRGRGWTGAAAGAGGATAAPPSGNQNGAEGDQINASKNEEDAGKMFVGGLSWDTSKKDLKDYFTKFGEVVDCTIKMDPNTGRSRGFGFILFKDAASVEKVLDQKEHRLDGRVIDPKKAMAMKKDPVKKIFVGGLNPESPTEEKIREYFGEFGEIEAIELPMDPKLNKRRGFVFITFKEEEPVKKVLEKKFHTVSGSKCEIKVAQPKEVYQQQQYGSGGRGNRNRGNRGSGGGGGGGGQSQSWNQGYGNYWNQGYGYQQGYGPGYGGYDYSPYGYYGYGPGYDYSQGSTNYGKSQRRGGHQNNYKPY
EMC10, sequence (chain, as listed by the source): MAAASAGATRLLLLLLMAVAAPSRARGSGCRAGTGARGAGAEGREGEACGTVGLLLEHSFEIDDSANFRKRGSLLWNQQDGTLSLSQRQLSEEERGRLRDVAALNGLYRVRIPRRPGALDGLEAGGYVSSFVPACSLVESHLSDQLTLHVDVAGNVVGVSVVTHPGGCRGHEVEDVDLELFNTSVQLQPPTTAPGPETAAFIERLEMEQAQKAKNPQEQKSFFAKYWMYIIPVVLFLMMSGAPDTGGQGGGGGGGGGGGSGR

With EIF4H the “solubility in G1/S (log2)” value (HeLa Kyoto [1]) was 0.374, the melting temperature (HeLa Kyoto [2]; cell cycle stage: G1/S) was 51.3 °C and the melting temperature (HeLa Kyoto [2]; cell cycle stage: mitosis) was 51.9 °C. For the same substance, the “solubility change mitosis (log2)” value (HeLa Kyoto [3]) was 0.16, the thermal stability score (HeLa Kyoto [4]; [5]) was -1.37 and the thermal stability score (HeLa Kyoto [4]; cell cycle stage: mitosis) was -1.91.

In the case of EIF5A, the “solubility in G1/S (log2)” value (HeLa Kyoto [1]) is reported as 0.638, the melting temperature (HeLa Kyoto [2]; cell cycle stage: G1/S) is reported as 49.7 °C and the melting temperature (HeLa Kyoto [2]; cell cycle stage: mitosis) is reported as 50.7 °C. The “solubility change mitosis (log2)” value (HeLa Kyoto [3]) was 0.0244, the thermal stability score (HeLa Kyoto [4]; [5]) was 0.791 and the thermal stability score (HeLa Kyoto [4]; cell cycle stage: mitosis) was 0.0469.

With EMC10 the “solubility in G1/S (log2)” value (HeLa Kyoto [1]) was 0.514, the melting temperature (HeLa Kyoto [2]; cell cycle stage: G1/S) was 52.2 °C and the melting temperature (HeLa Kyoto [2]; cell cycle stage: mitosis) was 54.1 °C. For the same substance, the “solubility change mitosis (log2)” value (HeLa Kyoto [3]) was -0.339, the thermal stability score (HeLa Kyoto [4]; [5]) was 1.37 and the thermal stability score (HeLa Kyoto [4]; cell cycle stage: mitosis) was 0.155.

With EPRS the “solubility in G1/S (log2)” value (HeLa Kyoto [1]) was -0.115, the melting temperature (HeLa Kyoto [2]; cell cycle stage: G1/S) was 48.6 °C and the melting temperature (HeLa Kyoto [2]; cell cycle stage: mitosis) was 49 °C. The “solubility change mitosis (log2)” value (HeLa Kyoto [3]) was -0.127, the thermal stability score (HeLa Kyoto [4]; [5]) was -0.525 and the thermal stability score (HeLa Kyoto [4]; cell cycle stage: mitosis) was 2.58.

With FAM98A the “solubility in G1/S (log2)” value (HeLa Kyoto [1]) was -0.0181, the melting temperature (HeLa Kyoto [2]; cell cycle stage: G1/S) was 53.4 °C and the melting temperature (HeLa Kyoto [2]; cell cycle stage: mitosis) was 51.3 °C. For the same substance, the “solubility change mitosis (log2)” value (HeLa Kyoto [3]) was 0.324, the thermal stability score (HeLa Kyoto [4]; [5]) was -1.25 and the thermal stability score (HeLa Kyoto [4]; cell cycle stage: mitosis) was -0.239.

FAT1 was tested, and the “solubility in G1/S (log2)” value (HeLa Kyoto [1]) was -0.133, the melting temperature (HeLa Kyoto [2]; cell cycle stage: G1/S) was 53.5 °C and the melting temperature (HeLa Kyoto [2]; cell cycle stage: mitosis) was 53.5 °C. The “solubility change mitosis (log2)” value (HeLa Kyoto [3]) was -0.025, the thermal stability score (HeLa Kyoto [4]; [5]) was 0.357 and the thermal stability score (HeLa Kyoto [4]; cell cycle stage: mitosis) was 0.56.

FOCAD was tested, and the “solubility in G1/S (log2)” value (HeLa Kyoto [1]) was -0.471, the melting temperature (HeLa Kyoto [2]; cell cycle stage: G1/S) was 52.9 °C and the melting temperature (HeLa Kyoto [2]; cell cycle stage: mitosis) was 52.4 °C. For the same substance, the “solubility change mitosis (log2)” value (HeLa Kyoto [3]) was -0.121, the thermal stability score (HeLa Kyoto [4]; [5]) was -1.09 and the thermal stability score (HeLa Kyoto [4]; cell cycle stage: mitosis) was -1.91.

In the case of FRG1, the “solubility in G1/S (log2)” value (HeLa Kyoto [1]) is reported as -0.326, the melting temperature (HeLa Kyoto [2]; cell cycle stage: G1/S) is reported as 51.2 °C and the melting temperature (HeLa Kyoto [2]; cell cycle stage: mitosis) is reported as 51.3 °C. The “solubility change mitosis (log2)” value (HeLa Kyoto [3]) was 0.0777, the thermal stability score (HeLa Kyoto [4]; [5]) was 0.899 and the thermal stability score (HeLa Kyoto [4]; cell cycle stage: mitosis) was 0.827.

With GMPPB the “solubility in G1/S (log2)” value (HeLa Kyoto [1]) was -0.038, the melting temperature (HeLa Kyoto [2]; cell cycle stage: G1/S) was 54.3 °C and the melting temperature (HeLa Kyoto [2]; cell cycle stage: mitosis) was 54.1 °C. The “solubility change mitosis (log2)” value (HeLa Kyoto [3]) was -0.108, the thermal stability score (HeLa Kyoto [4]; [5]) was -1.12 and the thermal stability score (HeLa Kyoto [4]; cell cycle stage: mitosis) was -4.14.

With GMPS the “solubility in G1/S (log2)” value (HeLa Kyoto [1]) was 0.0167, the melting temperature (HeLa Kyoto [2]; cell cycle stage: G1/S) was 51.1 °C and the melting temperature (HeLa Kyoto [2]; cell cycle stage: mitosis) was 51.6 °C. The “solubility change mitosis (log2)” value (HeLa Kyoto [3]) was -0.148, the thermal stability score (HeLa Kyoto [4]; [5]) was 2.38 and the thermal stability score (HeLa Kyoto [4]; cell cycle stage: mitosis) was 1.21.

GOLGA3 was tested, and the “solubility in G1/S (log2)” value (HeLa Kyoto [1]) was 0.313, the melting temperature (HeLa Kyoto [2]; cell cycle stage: G1/S) was 51.8 °C and the melting temperature (HeLa Kyoto [2]; cell cycle stage: mitosis) was 50.4 °C. For the same substance, the “solubility change mitosis (log2)” value (HeLa Kyoto [3]) was -0.048, the thermal stability score (HeLa Kyoto [4]; [5]) was 0.197 and the thermal stability score (HeLa Kyoto [4]; cell cycle stage: mitosis) was -1.4.

GOLGB1 was tested, and the “solubility in G1/S (log2)” value (HeLa Kyoto [1]) was 0.115, the melting temperature (HeLa Kyoto [2]; cell cycle stage: G1/S) was 48.6 °C and the melting temperature (HeLa Kyoto [2]; cell cycle stage: mitosis) was 49.9 °C. The “solubility change mitosis (log2)” value (HeLa Kyoto [3]) was -0.0748, the thermal stability score (HeLa Kyoto [4]; [5]) was 1.43 and the thermal stability score (HeLa Kyoto [4]; cell cycle stage: mitosis) was 4.58.

For GPATCH8, the “solubility in G1/S (log2)” value (HeLa Kyoto [1]) was -0.561, the melting temperature (HeLa Kyoto [2]; cell cycle stage: G1/S) was 47.8 °C and the melting temperature (HeLa Kyoto [2]; cell cycle stage: mitosis) was 49.6 °C. The “solubility change mitosis (log2)” value (HeLa Kyoto [3]) was 0.335, the thermal stability score (HeLa Kyoto [4]; [5]) was 0.236 and the thermal stability score (HeLa Kyoto [4]; cell cycle stage: mitosis) was 4.11.

In the case of HADHA, the “solubility in G1/S (log2)” value (HeLa Kyoto [1]) is reported as 0.196, the melting temperature (HeLa Kyoto [2]; cell cycle stage: G1/S) is reported as 50.8 °C and the melting temperature (HeLa Kyoto [2]; cell cycle stage: mitosis) is reported as 50.9 °C. For the same substance, the “solubility change mitosis (log2)” value (HeLa Kyoto [3]) was -0.133, the thermal stability score (HeLa Kyoto [4]; [5]) was -1.31 and the thermal stability score (HeLa Kyoto [4]; cell cycle stage: mitosis) was 0.108.

For HCFC1, the “solubility in G1/S (log2)” value (HeLa Kyoto [1]) was 0.179, the melting temperature (HeLa Kyoto [2]; cell cycle stage: G1/S) was 52.5 °C and the melting temperature (HeLa Kyoto [2]; cell cycle stage: mitosis) was 52.7 °C. The “solubility change mitosis (log2)” value (HeLa Kyoto [3]) was -0.0808, the thermal stability score (HeLa Kyoto [4]; [5]) was -0.303 and the thermal stability score (HeLa Kyoto [4]; cell cycle stage: mitosis) was 0.00236.

For HEATR5B, the “solubility in G1/S (log2)” value (HeLa Kyoto [1]) was -0.275, the melting temperature (HeLa Kyoto [2]; cell cycle stage: G1/S) was 50.8 °C and the melting temperature (HeLa Kyoto [2]; cell cycle stage: mitosis) was 52.4 °C. For the same substance, the “solubility change mitosis (log2)” value (HeLa Kyoto [3]) was -0.00901, the thermal stability score (HeLa Kyoto [4]; [5]) was -0.405 and the thermal stability score (HeLa Kyoto [4]; cell cycle stage: mitosis) was -0.289.

In the case of HNRNPAB, the “solubility in G1/S (log2)” value (HeLa Kyoto [1]) is reported as 0.308, the melting temperature (HeLa Kyoto [2]; cell cycle stage: G1/S) is reported as 55.3 °C and the melting temperature (HeLa Kyoto [2]; cell cycle stage: mitosis) is reported as 54.4 °C. The “solubility change mitosis (log2)” value (HeLa Kyoto [3]) was 0.251, the thermal stability score (HeLa Kyoto [4]; [5]) was -0.524 and the thermal stability score (HeLa Kyoto [4]; cell cycle stage: mitosis) was -3.14.
